“Also recorded” adds a separate entry of the source. Where two headings read alike, the source gives them in different places. No end group written: not given here.
Key:
[1] = incubated with intercellular plant fluid of rice; cited from earlier work
[2] = incubated with intercellular plant fluid of potato; cited from earlier work
E. coli ER2566 [3] = assay type: cell-based
E. coli ER2566 [4] = assay type: cell-based; conditions: for bacterial stasis induced by expression: berberine chloride 250 ug/ml, 0.25 mM IPTG, 20 hrs of induction
[5] = tested on: purified LPS extracted from X. campestris pv. pelargonii, X. citri, Rhizobium leguminosarum and Ralstonia solanacearum; assay type: biochemical; conditions: 5 ug purified protein, room temperature, 2 hours
[6] = tested on: Ca. Liberibacter asiaticus; assay type: in vivo; conditions: transgenic tobacco Xanthi, same on retest three weeks later
[7] = tested on: E. coli strains ADA410 P3rpoH::lacZ reporter (LPS or outer membrane damage); experiment: P3rpoH::lacZ reporter, purified protein droplets on ADA410 cells on X-gal agar; conditions: ten microliter droplets of purified protein, 24 hr
[8] = tested on: geranium (Pelargonium X hortorum) cv. Avenida; experiment: Stable transformation of geranium, effect on the plant; conditions: stable transformation with pIPG787
[9] = tested on: Nicotiana tabaccum cv. Xanthi; experiment: Stable transformation of tobacco, effect on the plant; conditions: stable transformation with pIPG786
R. solanacearum = assay type: in vivo; conditions: sweet pepper leaves, transient expression from pIPG780, 48 hrs after challenge
X. pelargonii = conditions: in vivo
[10] = tested on: R. solanacearum strain Rsp446; assay type: in vivo; conditions: after 68 days
[11] = tested on: LPS of X. campestris pv. pelargonii, X. citri, Rhizobium leguminosarum and Ralstonia solanacearum; assay type: binding; conditions: treated LPS lanes, Western blot
[12] = tested on: X. pelargonii strain CHSC; experiment: Pathogen challenge of transgenic geranium; assay type: in vivo
Procedure: Following inoculation, plants were held at 32° C. The circled region was cut out, and contained ca. 10^5 cfu/cm^2 live X. pelargonii cells (for details, refer Example 11 below). Photo taken four weeks after inoculation.
Following inoculation, plants were held at 32° C. […] Photo taken four weeks after inoculation.
Cell counts were taken daily for nine days by removing circular sections totaling 1 square centimeter (cm^2) using a cork borer from three inoculated leaves in the area most likely to contain pathogen cells (refer FIGS. 1 and 2). These leaf sections were macerated with a mortar and pestle and 1 milliliter of buffer, diluted using a 1:10 dilution series and 10 microliter drops placed on solid growth medium for counting. […] These plants were both immune to X. pelargonii infection, and rapidly brought the artificially inoculated pathogen population to extinction.
Inoculations were performed using liquid culture grown X. pelargonii cells, sprayed on the leaves at a concentration of 10^7 colony forming units per milliliter (cfu/ml) each. X. pelargonii was also inoculated using scissors dipped in 10^9 cfu/ml of cells to clip the leaves in several places on the same plants that were sprayed. Following X. pelargonii inoculation, plants were held at 32° C. to encourage pathogen growth and symptom development. Four weeks after inoculation, photographs were taken of both nontransgenic geranium variety “Avenida” inoculated with X. pelargonii (FIG. 1) and transgenic geranium of the same variety “Avenida” expressing BombBC inoculated with X. pelargonii (FIG. 2), and circular sections totaling 1 square centimeter (cm^2) were removed using a cork borer from three inoculated leaves in the area most likely to contain pathogen cells (refer FIGS. 1 and 2). Consistently, 10^5 cfu/ml of X. pelargonii was recovered from nontransgenic geranium variety “Avenida” plants at four weeks after inoculation (FIG. 3), and symptoms progressed systemically until the entire plant was dead, usually by 12 weeks after inoculation. […] These plants were immune to X. pelargonii infection.

[13] = tested on: rice (Oryza sativa japonica) cv. TP309; experiment: Stable transformation of rice, effect on the plant; conditions: stable transformation with pIPG787
[14] = tested on: R. solanacearum strain Rsp673; assay type: in vivo; conditions: transgenic geranium Avenida
[15] = tested on: X. pelargonii strain CHSC; conditions: in vivo
[16] = Exp. 1, cutting (T0), inoculum 5 × 10^7 cfu/ml
[17] = Exp. 2, cutting (T0), inoculum 1 × 10^8 cfu/ml

Molecule: cecropin B: linear lytic peptide rapidly degraded by plant proteases (KWKVFKKIEKMGRNIRNGIVKAGPAIAVLGEAKAL; ends and bridges not checked; UniProt P01508 27-61, looked up)
- half-life [1]: about 25 hours
- half-life [2]: about three

B1: BombOrfL: Phage 15 ORF L from Xanthomonas campestris pv. pelargonii, SEQ ID No. 15 (protein, listed as Xanthomonas campestris)
chain: MPTVDATPGSITANSYVTVAEANSYFDGSYGRPLWTSASEDEKASLVISASRYLDQMMAWIGAPTNPEQSMWWPCKNAVIGGMTLSQVSIPVKVKIAVFELAYFMLESGAALSFADQTIDSVKVGTIRVEFTKNSTDAGLPTFVEAMLSGFGSPVLYGSNAARSIDLVRA
- activity of expression clone (growth in presence of berberine chloride) (E. coli ER2566 [3]): Active

B2: BombORF35PA: Phage PhiKMV ORF 35 from Pseudomonas aeruginosa, SEQ ID No. 9 (protein, listed as Pseudomonas aeruginosa)
chain: MAFWLPLLAAGGMSALQQGLANKEERNKIKAENKARLKTDLDNLGAAARDIANLGVMAASYRKQAVASQVEAKRQGMLAGGSAEAQAGAFGVKGASVDAVALDIEREVGEALIQIDDNLDNQMWNLAEQAHSIQAQAKAGLLGQKSTTAGQRSPLVAGLMSAGSLYASQYFKFGATPKGGN
- activity of expression clone (growth in presence of berberine chloride) (E. coli ER2566 [3]): Active

B3: D1: BombBC deletion, aa26-169 of BC, SEQ ID 6 (protein)
chain: MPIAVVALARFGSQSTTTTKAAADALGTTVGKIDDIRKNRNFAYVTADFKPTEAQKADGIEWLKRHPVGADALIEELQNLPVATAEESAAFEQVRASARGQNAKTAEGEVAQAGGGNRRKKKEKPAEAGEVQNPPAADGDSLLS
modifications: mutant D1 predicted amino acid sequence
- bacterial stasis induced by expression (E. coli ER2566 [4]): clearly induced
- activity of expression clone (growth in presence of berberine chloride) (E. coli ER2566 [4]; berberine chloride (5 micrograms/ml), 20 h after induction): Active

B4: BombBC: Bacteriophage Outer Membrane Breaching protein of Xanthomonas phage P15 (Xp15) ORF BC, 17.9 kD, SEQ ID NO. 17 (protein, listed as Xanthomonas campestris)
chain: MSDQTDTTQTTPAEKAPPKEIIRGRMPIAVVALARFGSQSTTTTKAAADALGTTVGKIDDIRKNRNFAYVTADFKPTEAQKADGIEWLKRHPVGADALIEELQNLPVATAEESAAFEQVRASARGQNAKTAEGEVAQAGGGNRRKKKEKPAEAGEVQNPPAADGDSLLS
- degradation of LPS [5]: enzymatically degrades LPS
- plants symptomatic for greening ([6]; 4 weeks connected to dodder): neither of the two
- plants PCR positive for greening ([6]; nested PCR): neither were PCR positive
- blue color around ADA410 cells (P3rpoH::lacZ activation) [7]: Blue color slowly developed and intensified
- detrimental effect on geranium plants [8]: not detrimental
- detrimental effect on tobacco plants [9]: not detrimental
- HR symptoms elicited by R. solanacearum (R. solanacearum): abolished
- activity of expression clone (growth in presence of berberine chloride) (E. coli ER2566 [3]): Active
- drop in the number of colony forming units vs. control leaves (X. pelargonii): 100 ×
- pathogenic symptoms caused by X. pelargonii (X. pelargonii): greatly reduced
- number of survivors/total tested [10, 16]: 10/15
- per cent survivors [10, 16]: (63%)
- number of survivors/total tested [10, 17]: 9/20
- per cent survivors [10, 17]: (45%)
- number of survivors/total tested ([10]; Exp. 3, seeded (T1), inoculum 2 × 10^8 cfu/ml): 0/21
- attachment to LPS [11]: attached to the degraded LPS of all species tested
- bacterial stasis induced by expression (E. coli ER2566 [4]): clearly induced
- resistance status to X. pelargonii infection ([12]; transgenic geranium Avenida): immune
- X. pelargonii cells in cut out leaf region ([12]; transgenic geranium Avenida leaf, four weeks after inoculation): no detected X. pelargonii cells
- symptoms of geranium blight ([12]; transgenic geranium Avenida, 32° C.): no evidence of symptoms
- living X. pelargonii cells recovered ([12]; transgenic geranium Avenida, after five days following inoculation): no living X. pelargonii cells were recovered
- detrimental effect on rice plants [13]: not detrimental
- symptom development of bacterial wilt ([14]; syringe infiltration and soil inoculation, 32° C.): failed to progress past the leaf area where the pathogen was directly infiltrated; also recorded: No symptom development, other than that which initially developed in, and stayed restricted to, the region of inoculation
- detected R. solanacearum cells ([14]; twelve weeks after inoculation): no detected R. solanacearum cells
- HR symptoms elicited by X. pelargonii [15]: abolished

B5: BombOrf9: Phage 13 ORF 9 from Xanthomonas campestris pv. pelargonii, SEQ ID No. 13 (protein, listed as Xanthomonas campestris)
chain: MVVVAQGTVPAKVHPQLTNLTALFADAVGLFLDVSDKVADLLVRFADVEAQGAELLLDLAHLAVPASVVHPTHAGQDQTVPAASDILHGVLEGQPVALVVNQRALRAAQLNPLLALRLDVEAVADQDAEGGAVAHAHAGDQLAVEQKLQILLERFGHDALAGHRRVEPIAYLVDVRSWEAGALDADQPRDDTADGDDAHAQRFVRHVERDGFGSGVLHPSQVRQRLAVLVDDFVEGSRVALDDRANHGEVGVDRVHQ
- activity of expression clone (growth in presence of berberine chloride) (E. coli ER2566 [3]): Active
- relative strength of activity in E. coli (E. coli ER2566 [3]): Weak activity
